We go through four molecules from US10925971B2, “Methods of treating PRLR positive breast cancer” (Regeneron Pharmaceuticals, Inc., priority 2016, dated 2021).

In assay [1] the test system is Macaca fascicularis PRLR (mfPRLR.mmh; SEQ ID NO:403). Description: Surface plasmon resonance (Biacore T200), antibody-capture format. The assay is classed as binding. To be noted: analyte mfPRLR.mmh. Summed up:
(§1)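 Antibodies (human IgG1 Fc) captured on an anti-human Fc sensor surface; soluble monomeric (.mmh) or dimeric (.mFc) PRLR injected as analyte. ka and kd obtained by fitting to a 1:1 binding model.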

Assay [2] has as its target T1, dimeric human PRLR (hPRLR.mFc; SEQ ID NO:402) (Homo sapiens, UniProt P16471).
T1 construct: dimeric (hPRLR.mFc)
The assay is described as above. To be noted: analyte hPRLR.mFc. The assay is classed as binding. Summed up: as §1

Assay [3] addresses T2, monomeric human PRLR (hPRLR.mmh; SEQ ID NO:401) (Homo sapiens, UniProt P16471).
T2 construct: soluble monomeric (hPRLR.mmh); mmh (myc-myc-hexahistidine) (C)
The assay is described as above. The assay is classed as binding. Conditions: analyte hPRLR.mmh. In outline: as §1

Another assay deals with HEK293 parental cells. Description: FACS cell surface binding. Also noted: species or system human. Summed up:
(§2)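 HEK293 cells stably transfected with HA-tagged human, cynomolgus or mouse PRLR (G418-selected), or parental HEK293, were stained with 10 μg/ml antibody for 30 min on ice. Binding was then detected with 10 μg/ml PE anti-human secondary for 30 min on ice, and MFI was expressed as fold over isotype control.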

Assay [4] has as its target T3, human PRLR on HEK293/hPRLR cells (Homo sapiens, UniProt P16471).
T3 construct: HA; expressed in transfected cells; host or cells: HEK293
T3 sequence (P16471 25-622): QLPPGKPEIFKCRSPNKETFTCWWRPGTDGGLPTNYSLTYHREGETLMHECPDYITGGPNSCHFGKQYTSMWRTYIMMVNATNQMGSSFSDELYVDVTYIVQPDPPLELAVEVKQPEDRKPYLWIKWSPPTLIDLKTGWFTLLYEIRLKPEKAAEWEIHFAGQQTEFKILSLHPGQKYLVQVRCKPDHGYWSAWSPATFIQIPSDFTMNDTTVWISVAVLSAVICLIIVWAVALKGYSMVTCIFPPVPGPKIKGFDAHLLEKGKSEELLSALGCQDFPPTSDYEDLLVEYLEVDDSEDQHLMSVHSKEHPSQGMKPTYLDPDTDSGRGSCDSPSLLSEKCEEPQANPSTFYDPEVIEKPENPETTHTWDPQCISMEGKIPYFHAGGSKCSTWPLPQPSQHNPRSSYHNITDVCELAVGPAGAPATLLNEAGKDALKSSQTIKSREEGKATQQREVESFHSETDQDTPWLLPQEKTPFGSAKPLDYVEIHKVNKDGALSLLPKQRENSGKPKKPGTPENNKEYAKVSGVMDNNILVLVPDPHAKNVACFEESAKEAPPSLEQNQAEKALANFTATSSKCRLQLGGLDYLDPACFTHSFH
Description: FACS cell surface binding. In outline: as §2

Assay [5] addresses T4, monkey PRLR on HEK293/mfPRLR cells (Macaca fascicularis, UniProt A0A2K5WXK1).
T4 construct: HA; expressed in transfected cells; host or cells: HEK293
T4 sequence (A0A2K5WXK1 25-619): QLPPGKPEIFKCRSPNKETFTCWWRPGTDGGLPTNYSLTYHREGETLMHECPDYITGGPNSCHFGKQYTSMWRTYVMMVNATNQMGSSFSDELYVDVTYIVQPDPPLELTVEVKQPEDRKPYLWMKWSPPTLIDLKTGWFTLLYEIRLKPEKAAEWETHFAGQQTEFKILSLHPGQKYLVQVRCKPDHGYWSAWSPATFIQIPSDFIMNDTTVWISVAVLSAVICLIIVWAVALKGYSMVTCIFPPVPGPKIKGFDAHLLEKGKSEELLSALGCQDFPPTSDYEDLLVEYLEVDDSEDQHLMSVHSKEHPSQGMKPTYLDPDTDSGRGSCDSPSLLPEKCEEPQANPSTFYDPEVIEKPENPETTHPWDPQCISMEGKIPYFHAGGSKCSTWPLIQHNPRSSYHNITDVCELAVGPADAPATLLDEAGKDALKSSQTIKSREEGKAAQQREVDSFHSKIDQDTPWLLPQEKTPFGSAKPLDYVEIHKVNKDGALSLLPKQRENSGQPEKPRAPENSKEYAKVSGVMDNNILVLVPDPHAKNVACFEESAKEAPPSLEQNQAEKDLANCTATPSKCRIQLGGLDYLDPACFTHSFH
Description: FACS cell surface binding. Summed up:
as §2

Assay [6] deals with T5, mouse PRLR on HEK293/mPRLR cells (Mus musculus, UniProt Q08501).
T5 construct: HA; expressed in transfected cells; host or cells: HEK293
T5 sequence (Q08501 20-608): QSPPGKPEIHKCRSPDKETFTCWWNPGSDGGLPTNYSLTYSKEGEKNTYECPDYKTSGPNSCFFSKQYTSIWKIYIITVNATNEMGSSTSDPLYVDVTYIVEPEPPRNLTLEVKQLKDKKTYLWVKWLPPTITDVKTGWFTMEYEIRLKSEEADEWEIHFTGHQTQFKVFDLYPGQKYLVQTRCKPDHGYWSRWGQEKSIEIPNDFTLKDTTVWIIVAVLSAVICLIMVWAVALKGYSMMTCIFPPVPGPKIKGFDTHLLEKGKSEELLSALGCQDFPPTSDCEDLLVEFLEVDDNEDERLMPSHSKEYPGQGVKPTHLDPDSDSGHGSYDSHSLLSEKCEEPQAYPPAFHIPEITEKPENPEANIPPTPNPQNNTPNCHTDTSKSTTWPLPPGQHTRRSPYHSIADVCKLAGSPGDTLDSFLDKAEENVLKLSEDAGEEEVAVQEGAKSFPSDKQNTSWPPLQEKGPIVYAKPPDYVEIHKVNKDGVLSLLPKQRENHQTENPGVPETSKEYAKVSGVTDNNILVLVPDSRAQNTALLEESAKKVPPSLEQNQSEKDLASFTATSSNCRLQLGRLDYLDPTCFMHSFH
Description: FACS cell surface binding. In outline:
as §2

Assay [7] concerns the target T6, native PRLR expressing T47D cells (Homo sapiens, UniProt P16471).
T6 construct: a native PRLR expressing cell line (T47D); endogenous in cells; host or cells: T47D
T6 sequence (P16471 25-622): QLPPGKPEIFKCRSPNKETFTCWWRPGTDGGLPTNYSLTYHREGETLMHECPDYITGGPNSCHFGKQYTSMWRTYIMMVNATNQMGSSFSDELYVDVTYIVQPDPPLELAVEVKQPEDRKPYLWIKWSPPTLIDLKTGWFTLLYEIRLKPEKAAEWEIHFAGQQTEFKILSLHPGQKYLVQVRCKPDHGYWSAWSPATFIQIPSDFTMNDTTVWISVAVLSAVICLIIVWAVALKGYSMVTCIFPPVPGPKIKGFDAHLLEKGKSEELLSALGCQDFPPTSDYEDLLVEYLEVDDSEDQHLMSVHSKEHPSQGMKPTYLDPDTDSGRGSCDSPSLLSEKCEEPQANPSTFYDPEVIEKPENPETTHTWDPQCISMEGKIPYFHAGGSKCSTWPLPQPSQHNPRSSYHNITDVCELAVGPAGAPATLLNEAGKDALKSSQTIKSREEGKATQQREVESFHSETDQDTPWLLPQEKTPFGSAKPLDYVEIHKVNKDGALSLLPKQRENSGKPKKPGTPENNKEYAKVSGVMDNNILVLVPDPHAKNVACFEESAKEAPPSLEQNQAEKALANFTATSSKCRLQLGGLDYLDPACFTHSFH
As to the kind of experiment: FACS cell surface binding. In outline: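 Flow cytometry on native PRLR-expressing T47D cells, alongside PRLR-overexpressing and parental HEK293 lines. Cells (1×10^5) incubated with antibody at 10 μg/ml, 30 min on ice, then PE anti-human secondary; binding reported as MFI fold over isotype control.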

T1 sequence (P16471 with tags, fused parts or gaps): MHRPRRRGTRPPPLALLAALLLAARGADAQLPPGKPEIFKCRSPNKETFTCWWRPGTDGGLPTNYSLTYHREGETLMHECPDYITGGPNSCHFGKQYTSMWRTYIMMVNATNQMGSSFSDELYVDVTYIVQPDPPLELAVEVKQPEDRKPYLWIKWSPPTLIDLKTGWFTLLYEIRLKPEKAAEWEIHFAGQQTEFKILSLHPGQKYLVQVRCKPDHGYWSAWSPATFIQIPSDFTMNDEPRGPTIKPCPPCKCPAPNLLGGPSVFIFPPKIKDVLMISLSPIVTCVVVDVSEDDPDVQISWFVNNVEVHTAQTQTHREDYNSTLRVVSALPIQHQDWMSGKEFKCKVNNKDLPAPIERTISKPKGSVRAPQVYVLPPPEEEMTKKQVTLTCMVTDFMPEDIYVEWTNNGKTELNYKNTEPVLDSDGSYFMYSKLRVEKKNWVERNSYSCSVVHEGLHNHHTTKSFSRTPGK
T2 sequence (P16471 with tags, fused parts or gaps): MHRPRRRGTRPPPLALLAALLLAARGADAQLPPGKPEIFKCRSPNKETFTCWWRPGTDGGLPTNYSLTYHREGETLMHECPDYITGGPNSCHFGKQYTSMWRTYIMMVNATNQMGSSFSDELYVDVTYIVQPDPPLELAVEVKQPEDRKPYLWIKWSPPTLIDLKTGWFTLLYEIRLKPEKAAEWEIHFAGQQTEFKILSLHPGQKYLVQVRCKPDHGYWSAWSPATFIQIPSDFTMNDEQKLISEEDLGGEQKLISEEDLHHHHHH
Sequence of Macaca fascicularis PRLR (mfPRLR.mmh; SEQ ID NO:403) (as listed by the source): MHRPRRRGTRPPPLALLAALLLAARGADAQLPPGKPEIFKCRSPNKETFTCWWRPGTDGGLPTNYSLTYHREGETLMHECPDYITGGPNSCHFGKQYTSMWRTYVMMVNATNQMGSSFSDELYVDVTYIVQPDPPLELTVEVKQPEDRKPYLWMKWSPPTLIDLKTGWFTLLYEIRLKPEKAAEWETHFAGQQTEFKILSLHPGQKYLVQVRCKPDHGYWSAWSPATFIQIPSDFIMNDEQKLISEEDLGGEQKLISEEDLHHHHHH

B1: H1H6800P: fully human anti-PRLR antibody, human IgG1 Fc; HCVR/LCVR SEQ ID NOs 194/202 (antibody, V domains shown)
VH: EVQLVESGGGLVQPGRSLRLSCAASGFTFDGYAMHWVRQGPGKGLEWVSGISWYSDTLGYADSVKGRFTISRDNAKNSLYLQMNSLRTEDTAFYYCAKISSSGWAFDYWGQGTLVTVSS
VL: EIVLTQSPGTLSLSPGERATLSCRASHSVSSAYLAWYQQKPGQTPRLLIYGTSSRATGIPDRFSGSGSGTDFTLTISRLEPEDFAVYYCQQYGSSPLFTFGPGTKVDIK
On to B1, for which the ka was found to be 303000 M/s in assay [1] (25° C.); 439000 M/s in assay [1] (37° C.); 473000 M/s in assay [2] (25° C.); 644000 M/s in assay [2] (37° C.); 421000 M/s in assay [3] (25° C.); 808000 M/s in assay [3] (37° C.). Further, the kd in assay [1] (25° C.) was 0.00038 s⁻¹; in assay [1] (37° C.) it was 0.00109 s⁻¹; in assay [2] (25° C.) it was 8.69e-05 s⁻¹; in assay [2] (37° C.), 0.000147 s⁻¹; in assay [3] (25° C.), 0.000409 s⁻¹; in assay [3] (37° C.) it was 0.00119 s⁻¹. Further, the “FACS Cell Binding” value with HEK293 parental cells came to 1 Fold Above Background; in assay [4] it was 35 Fold Above Background; in assay [5], 29 Fold Above Background; in assay [6], 1 Fold Above Background; in assay [7] it was 41 Fold Above Background.

B2: H1H6793P: fully human anti-PRLR antibody, human IgG1 Fc; HCVR/LCVR SEQ ID NOs 146/154 (antibody, V domains shown)
VH: EVQLVESGGGLVQPGGSLRLSCAASGFSFSIYAMSWFRQAPGKGLEWVSAINGRGDGTHYADSVKGRFTISRDNSKTTLYLQMSSLRAEDTAVYYCAKPVMSTNGFDIWGQGTMVTVSS
VL: DIQMTQSPSTLSASVGDRVTITCRASQSISSWLAWYQLKPGKAPKLLIYKASNLESGVPSRFSGSGSGTEFTLTISSLQPDDFATYYCQQYNIYWTFGQGTKVEIK
In the case of B2, the ka amounted to 177000 M/s in assay [1] (25° C.); 233000 M/s in assay [1] (37° C.); 229000 M/s in assay [2] (25° C.); 410000 M/s in assay [2] (37° C.); 235000 M/s in assay [3] (25° C.); 339000 M/s in assay [3] (37° C.). The kd is 0.000393 s⁻¹ in assay [1] (25° C.); 0.00107 s⁻¹ in assay [1] (37° C.); 7.57e-05 s⁻¹ in assay [2] (25° C.); 0.000142 s⁻¹ in assay [2] (37° C.); 0.000332 s⁻¹ in assay [3] (25° C.); 0.00102 s⁻¹ in assay [3] (37° C.). Further, the “FACS Cell Binding” value with HEK293 parental cells turned out to be 2 Fold Above Background; in assay [4], 2 Fold Above Background; in assay [5], 32 Fold Above Background; in assay [6], 2 Fold Above Background; in assay [7], 43 Fold Above Background.

B3: H1H6801P: fully human anti-PRLR antibody, human IgG1 Fc; HCVR/LCVR SEQ ID NOs 210/218 (antibody, V domains shown)
VH: QVQLQQSGPGLVKPSQTLSLTCVISGDSVSSNTAWNWVRQSPSRGLEWLGRTYYRSKWYNDYAVSVKSRITINPDTSKNQFSLLMNSVTPEDTAVYYCARVVRGLNYFDYWGQGTLVTVSS
VL: DIVMTQSPDSLAVSLGERATINCKSSQSVLYNSNNKNYLAWYQQKPGQPPKLLIYWSSSRESGVPDRFSGSGSGTDFTLTISGLQAEDVAIYYCQQYSTIPYTFGQGTKLEIK
Consider B3, for which the ka in assay [1] (25° C.) turned out to be 657000 M/s; in assay [1] (37° C.) it was 711000 M/s; in assay [2] (25° C.), 675000 M/s; in assay [2] (37° C.) it was 793000 M/s; in assay [3] (25° C.) it was 846000 M/s; in assay [3] (37° C.), 951000 M/s. Besides, the kd came out at 0.00123 s⁻¹ in assay [1] (25° C.); 0.00771 s⁻¹ in assay [1] (37° C.); 0.000109 s⁻¹ in assay [2] (25° C.); 0.000221 s⁻¹ in assay [2] (37° C.); 0.000756 s⁻¹ in assay [3] (25° C.); 0.00441 s⁻¹ in assay [3] (37° C.). Also, the “FACS Cell Binding” value was 7 Fold Above Background in the assay with HEK293 parental cells; 47 Fold Above Background in assay [4]; 88 Fold Above Background in assay [5]; 56 Fold Above Background in assay [6]; 45 Fold Above Background in assay [7].

B4: H1H6792P: fully human anti-PRLR antibody, human IgG1 Fc; HCVR/LCVR SEQ ID NOs 130/138 (antibody, V domains shown)
VH: EVQLVESGGGLVQPGRSLRLSCAASGFTLDDHAVHWVRQAPGKGLEWVSGISWNSVYIDYADSVKGRFTIFRDNAKNSLYLQMNSLRAEDTAFYYCARDIEGARDYWGQGTLVTVSS
VL: DIQMTQSPSSLSASVGDRVTITCRASQGIRNDLGWYQQKPGKAPKRLIYAASSLQSGVPSRFSGSGYGTEFTLTISSLQPEDFAPYYCLQHNSYPLTFGGGTKVEIK
Consider B4, for which the ka in assay [1] (25° C.) turned out to be 236000 M/s; in assay [1] (37° C.), 305000 M/s; in assay [2] (25° C.), 303000 M/s; in assay [2] (37° C.), 499000 M/s; in assay [3] (25° C.), 324000 M/s; in assay [3] (37° C.) it was 435000 M/s. Also, the kd in assay [1] (25° C.) was determined as 0.000983 s⁻¹; in assay [1] (37° C.) it was 0.00286 s⁻¹; in assay [2] (25° C.) it was 9.48e-05 s⁻¹; in assay [2] (37° C.), 0.000176 s⁻¹; in assay [3] (25° C.) it was 0.000794 s⁻¹; in assay [3] (37° C.), 0.00229 s⁻¹. For the same molecule, the “FACS Cell Binding” value is given as 1 Fold Above Background in the assay on HEK293 parental cells; 37 Fold Above Background in assay [4]; 28 Fold Above Background in assay [5]; 3 Fold Above Background in assay [6]; 37 Fold Above Background in assay [7].
